Earlier results as cited in publication PMC9377792.

Biological target: uPAR (Homo sapiens) (UniProt Q03405)
Chain of UniProt Q03405 (Q03405 23-305): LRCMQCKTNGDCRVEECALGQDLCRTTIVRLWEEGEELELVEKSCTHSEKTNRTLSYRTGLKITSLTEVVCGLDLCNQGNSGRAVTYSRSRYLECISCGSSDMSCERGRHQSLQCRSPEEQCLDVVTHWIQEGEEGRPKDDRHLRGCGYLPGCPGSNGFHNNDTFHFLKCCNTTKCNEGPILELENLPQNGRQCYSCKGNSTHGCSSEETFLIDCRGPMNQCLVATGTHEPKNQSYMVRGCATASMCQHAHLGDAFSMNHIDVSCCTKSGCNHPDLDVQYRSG

- Kd: 37.1 nM
Substance: Factor XII (from UniProt P00748)
